According to patent US20180312587A1 (ADURO BIOTECH HOLDINGS EUROPE B V, published 2018):
One block for each binder: values may come before it.

Legend:
human SIRPα variant 2 = target: T1, human SIRPα variant 2 (human, UniProt P78324 31-504); assay: flow cytometry, blockade of DyLight488-hCD47/Fc binding to THP-1 cells
T1 construct: full length ORF on transfected CHO-K1 cells; also called hSIRPαV2; SIRPαV2
How it was run: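 THP-1 or U-937 monocyte cells were placed in 96-well round-bottom plates and incubated at 4 °C for 45 minutes in PBS/1% BSA containing FcR Blocking Reagent and a dilution series of anti-SIRPα antibody. After a further wash, cells were resuspended with 0.1 μg/mL DAPI, read by flow cytometry and analyzed in FlowJo. IC50 is defined as the antibody concentration that gives half-maximal inhibition of CD47/Fc binding.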

[1] = target: T2, hSIRPα expressed on primary human cells (human, UniProt P78324 31-504); assay: flow cytometry, primary human granulocytes, donor 1
T2 construct: whole, on cells; also called hSIRPα on primary human CD14+ monocytes; on primary human granulocytes
Description: Next, cells were centrifuged at 300 g for 7 minutes. Supernatants containing lysed RBCs were removed by aspiration, and the remaining blood cells were gently resuspended in RBC lysis buffer and kept on ice for 1 minute. RBC lysis was neutralized by adding assay medium (IMDM (Gibco) supplemented with 10% Fetal Bovine Serum (Gibco) and Pen/Strep (Gibco)). Blood cells were centrifuged at 300 g for 6 minutes and supernatants were removed by aspiration to remove remaining RBCs as much as possible. Subsequently, erythrocyte-lysed blood cells were resuspended in assay medium containing 10 ng/mL IFNγ and cells were incubated for 1 hour at 37° C., 5% CO₂ and 95% humidity. […] The percentage of granulocytes present in the cell suspension was determined by flow cytometry on the FACSCanto II (BD Biosciences) based on high forward scatter (FSC) and side scatter (SSC). Binding of hSIRPα.50A to human granulocytes was assessed by incubating the cells for 30 minutes at 4° C. with hSIRPα.50A antibody (25 μg/mL and dilutions thereof) in PBS/1% BSA containing 10% autologous serum (PBS/1% BSA/10% serum). […] After this labeling procedure, cells were washed two times, resuspended in PBS/1% BSA/10% serum and analysed by flow cytometry on the FACSCanto II (BD Biosciences). Data were processed and analysed with FlowJo V10 software (FlowJo, LLC). […]

human SIRPα variant 1 = target: T3, human SIRPα variant 1 (human, UniProt P78324 31-504); assay: CELISA, CHO-K1 transfectants, point mutant study
T3 construct: full length ORF on transfected CHO-K1 or HEK293 cells; entry includes the signal peptide; also called hSIRPαV1; SIRPαV1
Description: Amino acids in the hSIRPα IgV domain that are altered in hSIRPβ1 were mutated by using the QuikChange II Site-Directed Mutagenesis Kit (Stratagene) and the full length hSIRPαV1 sequence (SEQ ID NO: 33) as donor cDNA. Binding of hSIRPα.40A to hSIRPαV1 point mutants was tested using CELISA. To this end, CHO-K1 cells were transiently transfected, using Lipofectamine 2000, with cDNA encoding the full length open reading frame of hSIRPαV1 and mutants thereof, and hSIRPβ1 subcloned into the pCI-neo vector. Transfected cells were seeded in culture medium (DMEM-F12 (Gibco) supplemented with 5% New Born Calf Serum (BioWest) and Pen/Strep (Gibco)) in 96-well flat-bottom tissue culture plates and incubated at 37° C., 5% CO₂ and 95% humidity for 24 hours. Subsequently, culture medium was removed and cells were incubated for 1 hour at 37° C., 5% CO₂ and 95% humidity with purified hSIRPα antibodies (used at 10 μg/mL and dilutions thereof). Next, cells were washed with PBS-T and incubated for 1 hour at 37° C., 5% CO₂ and 95% humidity with goat-anti-mouse IgG-HRP (Southern Biotech). Subsequently, cells were washed three times with PBS-T and immunoreactivity against hSIRPαV1, hSIRPαV1 mutants, and hSIRPβ1 was visualized with TMB Stabilized Chromogen (Invitrogen). Reactions were stopped with 0.5 M H₂SO₄ and absorbances were read at 450 and 610 nm. […]

human SIRPγ = target: T4, human SIRPγ (human, UniProt Q9P1W8 29-387); assay: flow cytometry, Jurkat E6.1 cells
T4 construct: on transfected CHO-K1 cells; also called hSIRPγ
Description: Binding to hSIRPγ was assessed by flow cytometry using the Jurkat E6.1 T cell leukemia cell line (ECACC 88042803). Jurkat cells were seeded in 96-well round bottomed tissue culture plates and incubated for 40 minutes with the anti-hSIRPα antibodies (20 μg/mL and dilutions thereof) in PBS/1% BSA at 4° C. […] After this labeling procedure, cells were washed two times, resuspended in PBS/1% BSA, containing 0.1 μg/mL DAPI (BioLegend), and analysed by flow cytometry on the FACSVerse (BD Biosciences). Data were processed and analysed with FlowJo V10 software (FlowJo, LLC).

T4 sequence (Q9P1W8 29-387 limits assumed): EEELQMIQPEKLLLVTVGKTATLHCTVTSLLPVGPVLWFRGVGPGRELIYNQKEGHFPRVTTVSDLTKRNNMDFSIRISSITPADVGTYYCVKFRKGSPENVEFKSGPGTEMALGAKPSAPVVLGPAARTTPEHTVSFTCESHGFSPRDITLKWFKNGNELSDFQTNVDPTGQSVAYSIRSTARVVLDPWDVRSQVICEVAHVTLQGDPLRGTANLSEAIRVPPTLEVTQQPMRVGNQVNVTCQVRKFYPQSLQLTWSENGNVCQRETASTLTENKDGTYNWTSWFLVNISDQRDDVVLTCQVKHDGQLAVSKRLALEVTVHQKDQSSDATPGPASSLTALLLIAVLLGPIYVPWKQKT
T2 sequence (P78324 31-504): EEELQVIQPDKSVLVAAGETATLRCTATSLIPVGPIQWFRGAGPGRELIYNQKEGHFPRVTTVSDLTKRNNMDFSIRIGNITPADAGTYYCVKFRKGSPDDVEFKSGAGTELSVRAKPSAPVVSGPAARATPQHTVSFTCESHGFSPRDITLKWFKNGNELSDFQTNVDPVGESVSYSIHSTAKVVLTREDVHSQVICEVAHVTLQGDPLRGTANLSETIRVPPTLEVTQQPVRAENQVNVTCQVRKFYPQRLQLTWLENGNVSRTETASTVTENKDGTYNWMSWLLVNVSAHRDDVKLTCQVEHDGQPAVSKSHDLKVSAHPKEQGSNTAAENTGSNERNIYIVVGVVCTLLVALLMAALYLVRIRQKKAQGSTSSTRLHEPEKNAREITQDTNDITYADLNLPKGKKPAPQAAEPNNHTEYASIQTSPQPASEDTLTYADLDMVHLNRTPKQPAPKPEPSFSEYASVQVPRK
T3 sequence (P78324 31-504 limits assumed, change not shown): as the sequence (P78324 31-504) above
T1 sequence (P78324 other isoform, or with tags, fused parts or gaps mutant limits assumed): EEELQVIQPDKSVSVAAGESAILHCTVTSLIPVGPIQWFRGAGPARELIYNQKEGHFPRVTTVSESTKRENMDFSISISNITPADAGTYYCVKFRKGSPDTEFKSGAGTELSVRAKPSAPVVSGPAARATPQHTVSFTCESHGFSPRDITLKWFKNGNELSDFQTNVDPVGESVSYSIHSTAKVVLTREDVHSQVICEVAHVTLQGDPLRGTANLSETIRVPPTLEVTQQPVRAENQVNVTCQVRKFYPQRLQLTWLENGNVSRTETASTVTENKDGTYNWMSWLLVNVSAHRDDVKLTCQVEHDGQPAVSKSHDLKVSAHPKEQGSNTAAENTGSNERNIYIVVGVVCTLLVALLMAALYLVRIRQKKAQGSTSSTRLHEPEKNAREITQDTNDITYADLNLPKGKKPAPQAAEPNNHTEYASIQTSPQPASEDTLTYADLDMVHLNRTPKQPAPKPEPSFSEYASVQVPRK

- IC50 (human SIRPα variant 2): 7.83 nM
- EC50 [1]: 4.3 nM
- EC50 (human SIRPα variant 1): 0.534 nM
B1: hSIRPα.50A (antibody, V domains shown)
VH: QVQLQQSGPELVKPGASVRISCKASGFTFTNYYIHWVKQRPGQGLEWIGWIYPGNVNTKYNEKFKAKATLTADKSSTTAYMQLSSLASEDSAVYFCARPTIIATDFDVWGAGTTVTVSS
VL: DIVMTQSHKFMSTSVGDRVNITCKASQGVGTAVGWYQQKPGQSPRLLIYWASTRHTGVPDRFTGSGSGTDFSLAISNVQSEDLADYFCQQYSTYPFTFGGGTNLEIK
notes: light chain constant domain not tied; also called mouse hSIRPα.50A; hSIRPα.50A.mIgG1

- IC50 (human SIRPα variant 2): 0.646 nM
- EC50 (human SIRPγ): 0.369 nM
- EC50 [1]: 1.23 nM
- EC50 (human SIRPα variant 1): 0.065 nM
B2: hSIRPα.40A (antibody, mouse IgG1, kappa, V domains shown)
VH: EVQFQQSGTVLARPGTSVKMSCKASGSTFTSYWMHWVKQGPGQGLQWIGAIYPVNNDTTYNQKFKGKAELTVVTSTSTAYMEVSSLTNEDSAVYYCTRSFYYSLDAAWFVYWGQGTLVTVSA
VL: DIQMTQSPSSLSASLGERVSLTCRASQDIGSRLNWLQQEPDGTIKRLIYATSSLDSGVPKRFSGSRSGSDYSLTISGLESEDFVDYYCLQYASSPFTFGGGTKLEINR
notes: mouse antibody, full chains without signal peptide; also called mouse hSIRPα.40A

- EC50 (human SIRPγ): 0.003 nM
B3: KWAR23 (antibody, V domains shown)
VH: EVQLQQSGAELVKPGASVKLSCTASGFNIKDYYIHWVQQRTEQGLEWIGRIDPEDGETKYAPKFQDKATITADTSSNTAYLHLSSLTSEDTAVYYCARWGAYWGQGTLVTVSS
VL: QIVLTQSPAIMSASPGEKVTLTCSASSSVSSSYLYWYQQKPGSSPKLWIYSTSNLASGVPARFSGSGSGTSYSLTISSMEAEDAASYFCHQWSSYPRTFGAGTKLELK
